Measured values taken from patent US20240316154A1.
Values belong to the substance of their own block, whether it stands above or below them.

Experiments:
Assay in all cases: cell-based or functional assay
[1] = biological target: human GFRAL and human RET on HEK293 cells (human) (UniProt Q6UXV0)
[2] = biological target: IL-2 receptor-dimer pair of the PathHunter IL-2 BioAssay cells
[3] = biological target: human CNTF receptor (CNTFR) on IMR-32 cells (human) (UniProt P26992)
[4] = biological target: human ErbB4 receptor (NCBI Ref. Seq. No. NP_001036064.1) (human) (UniProt Q15303)

human CNTF receptor (CNTFR) on IMR-32 cells (human), sequence (P26992 23-342): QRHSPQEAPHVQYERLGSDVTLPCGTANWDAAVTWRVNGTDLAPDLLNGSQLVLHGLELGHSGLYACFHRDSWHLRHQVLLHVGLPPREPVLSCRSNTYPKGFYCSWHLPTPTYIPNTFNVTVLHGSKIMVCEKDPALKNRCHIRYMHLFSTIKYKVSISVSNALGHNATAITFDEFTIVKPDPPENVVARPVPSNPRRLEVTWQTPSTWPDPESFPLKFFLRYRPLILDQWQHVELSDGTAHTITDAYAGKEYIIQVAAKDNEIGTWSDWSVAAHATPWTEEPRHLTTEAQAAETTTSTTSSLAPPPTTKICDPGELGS

hGFRAL/RET EC50 (pM), p-ERK1/2 AlphaLISA [1]: 2.85 pM
Substance: Human GDF15 (from UniProt Q99988 197-308) (ligand)

EC50 (nM), PathHunter IL-2 BioAssay [2]: 0.13 nM
Substance: Human IL-2 (reference standard of the PathHunter IL-2 BioAssay Kit) (from UniProt P60568 21-153) (ligand)

hCNTFR EC50 pM GeoMean (pSTAT3 in IMR-32 cells) [3]: 3.5 pM
Substance: human CNTF (R&D Systems; Cat #257-NT-010) (from UniProt P26441 2-200) (ligand)

EC50 (ng/mL), PathHunter ErbB4/ErbB4 dimerization assay [4]: 16.5 ng/mL
Substance: rhNRG-1 (eurofins cat #92-1091) (from UniProt Q02297 177-241) (ligand)
